Consider 20 molecules from US20220119549A1 (TAVOTEK BIOTHERAPEUTICS HONG KONG, published 2022).

The chains are these.
B1: TAVO578585 (antibody, human IgG1, kappa)
heavy: GILEECCFRSCDLALLETYCAGGGGSPLGLAGGGGGSEVQLVESGGVVVQPGGSLRLSCAASGFTFDDYAMHWVRQAPGKGLEWVSAITWNSGHIDYADSVKGRFTISRDNSKNSLYLQMNSLRTEDTALYYCAKVSYLSTASSLDYWGQGTLVTVSSASTKGPSVFPLAPSSKSTSGGTAALGCLVKDYFPEPVTVSWNSGALTSGVHTFPAVLQSSGLYSLSSVVTVPSSSLGTQTYICNVNHKPSNTKVDKKVEPKSCDKTHTCPPCPAPPAAGPSVFLFPPKPKDTLMISRTPEVTCVVVDVSHEDPEVKFNWYVDGVEVHNAKTKPREEQYNSTYRVVSVLTVLHQDWLNGKEYKCKVSNKALPAPIEKTISKAKGQPREPQVYTLPPSRDELTKNQVSLTCLVKGFYPSDIAVEWESNGQPENNYKTTPPVLDSDGSFLLYSKLTVDKSRWQQGNVFSCSVLHEALHSHYTQKSLSLSPGK
light: AYRPSETLCGGELVDTLQFVCGDRGFAFGGGGSPLGLAGGGGGSDIVMTQSPDSLAVSLGERATINCRASQGIRNYLAWYQQKPGQAPKLLIYAASTLQSGVPDRFSGSGSGTDFTLTISSLQAEDVAVYYCQRYNRAPYTFGQGTKVEIKRTVAAPSVFIFPPSDEQLKSGTASVVCLLNNFYPREAKVQWKVDNALQSGNSQESVTEQDSKDSTYSLSSTLTLSKADYEKHKVYACEVTHQGLSSPVTKSFNRGEC
notes: Variant IGF2 mask; ADA-H1 / ADA-L2; also called EAC578/EAC585
B2: TAVO584585 (antibody, human IgG1, kappa)
heavy: B1 heavy with E38Q, V47G, T65D, D67A, S92G, I95T, S115T, T125A, L130V
light: B1 light
notes: Variant IGF2 mask; ADA-H4X / ADA-L2; also called EAC584/EAC585
B3: TAVO580585 (antibody, human IgG1, kappa)
heavy: B1 heavy with V47G, V48L, S115T, T125A, L130V
light: B1 light
notes: Variant IGF2 mask; ADA-H2 / ADA-L2; also called EAC580/EAC585
B4: TAVO579585 (antibody, human IgG1, kappa)
heavy: B1 heavy with T65D, D67A, S92G, I95T
light: B1 light
notes: Variant IGF2 mask; ADA-H1X / ADA-L2; also called EAC579/EAC585
B5: TAVO186187 after digestion by MMP2 (antibody)
heavy: EVQLVESGGGLVQPGGSLRLSCAASGFDFADYAMHWVRQAPGKGLEWVSAITWNGGHTDYADSVKGRFTISRDNSKNTLYLQMNSLRAEDTAVYYCAKVSYLSTASSLDYWGQGTLVTVSSASTKGPSVFPLAPSSKSTSGGTAALGCLVKDYFPEPVTVSWNSGALTSGVHTFPAVLQSSGLYSLSSVVTVPSSSLGTQTYICNVNHKPSNTKVDKKVEPKSCDKTHTCPPCPAPPAAGPSVFLFPPKPKDTLMISRTPEVTCVVVDVSHEDPEVKFNWYVDGVEVHNAKTKPREEQYNSTYRVVSVLTVLHQDWLNGKEYKCKVSNKALPAPIEKTISKAKGQPREPQVYTLPPSRDELTKNQVSLTCLVKGFYPSDIAVEWESNGQPENNYKTTPPVLDSDGSFLLYSKLTVDKSRWQQGNVFSCSVLHEALHSHYTQKSLSLSPGK
light: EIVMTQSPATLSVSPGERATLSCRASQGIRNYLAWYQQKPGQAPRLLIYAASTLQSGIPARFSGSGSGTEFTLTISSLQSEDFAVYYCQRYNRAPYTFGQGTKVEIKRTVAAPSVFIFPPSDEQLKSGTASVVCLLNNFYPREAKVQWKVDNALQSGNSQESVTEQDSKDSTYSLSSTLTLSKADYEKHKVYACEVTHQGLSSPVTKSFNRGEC
notes: also called digested shielded antibody; digested TAVO186187; not shown: remnant of the protease-cleavable linker left after cleavage
B6: TAVO196197 after digestion by MMP3 (antibody)
heavy: B5 heavy
light: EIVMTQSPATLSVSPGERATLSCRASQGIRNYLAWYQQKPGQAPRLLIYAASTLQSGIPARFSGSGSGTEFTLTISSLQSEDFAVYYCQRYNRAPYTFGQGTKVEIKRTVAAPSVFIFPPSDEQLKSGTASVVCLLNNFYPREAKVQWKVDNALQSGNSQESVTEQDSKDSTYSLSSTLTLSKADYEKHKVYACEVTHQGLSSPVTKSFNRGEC
notes: also called digested shielded antibody; digested TAVO196197; not shown: remnant of the protease-cleavable linker left after cleavage
B7: TAVO190191 after digestion by MMP2 (antibody)
heavy: B5 heavy
light: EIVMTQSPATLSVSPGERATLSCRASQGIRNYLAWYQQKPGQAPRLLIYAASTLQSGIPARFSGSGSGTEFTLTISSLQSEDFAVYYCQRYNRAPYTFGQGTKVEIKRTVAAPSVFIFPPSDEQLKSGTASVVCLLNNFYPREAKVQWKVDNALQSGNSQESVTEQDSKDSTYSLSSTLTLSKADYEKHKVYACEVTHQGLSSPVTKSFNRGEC
notes: also called digested shielded antibody; digested TAVO190191; not shown: remnant of the protease-cleavable linker left after cleavage
B8: TAVO188189 after digestion by MMP2 (antibody)
heavy: B5 heavy
light: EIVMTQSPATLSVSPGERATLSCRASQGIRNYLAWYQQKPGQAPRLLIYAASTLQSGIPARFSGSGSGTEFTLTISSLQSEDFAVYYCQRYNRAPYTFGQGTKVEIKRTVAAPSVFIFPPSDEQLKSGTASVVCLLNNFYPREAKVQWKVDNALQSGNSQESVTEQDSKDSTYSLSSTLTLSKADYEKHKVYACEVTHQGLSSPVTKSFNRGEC
notes: also called digested shielded antibody; digested TAVO188189; not shown: remnant of the protease-cleavable linker left after cleavage
B9: TAVO192193 after digestion by MMP2 (antibody)
heavy: B5 heavy
light: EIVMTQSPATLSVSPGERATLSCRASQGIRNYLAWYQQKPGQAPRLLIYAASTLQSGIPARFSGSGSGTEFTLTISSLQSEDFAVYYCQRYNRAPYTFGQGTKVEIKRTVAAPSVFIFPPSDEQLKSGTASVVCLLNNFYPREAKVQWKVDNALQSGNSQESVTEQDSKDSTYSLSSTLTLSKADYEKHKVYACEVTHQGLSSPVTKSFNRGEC
notes: also called digested shielded antibody; digested TAVO192193; not shown: remnant of the protease-cleavable linker left after cleavage
B10: TAVO198199 after digestion by uPA (antibody)
heavy: B5 heavy
light: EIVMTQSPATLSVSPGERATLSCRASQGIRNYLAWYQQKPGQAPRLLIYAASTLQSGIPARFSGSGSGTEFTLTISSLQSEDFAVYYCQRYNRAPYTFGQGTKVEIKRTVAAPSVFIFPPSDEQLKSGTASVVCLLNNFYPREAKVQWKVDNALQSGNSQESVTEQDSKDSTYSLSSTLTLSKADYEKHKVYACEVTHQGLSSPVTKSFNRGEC
notes: also called digested shielded antibody; digested TAVO198199; not shown: remnant of the protease-cleavable linker left after cleavage
B11: TAVO194195 after digestion by MMP2 (antibody)
heavy: B5 heavy
light: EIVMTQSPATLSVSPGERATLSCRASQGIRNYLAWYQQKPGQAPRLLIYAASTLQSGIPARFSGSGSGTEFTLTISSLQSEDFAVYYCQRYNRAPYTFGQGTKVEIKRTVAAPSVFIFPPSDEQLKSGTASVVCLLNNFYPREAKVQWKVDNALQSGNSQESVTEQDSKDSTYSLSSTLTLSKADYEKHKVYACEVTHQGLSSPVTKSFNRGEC
notes: also called digested shielded antibody; digested TAVO194195; not shown: remnant of the protease-cleavable linker left after cleavage
B12: TAVO271272 after digestion by MMP2 (antibody)
heavy: B5 heavy
light: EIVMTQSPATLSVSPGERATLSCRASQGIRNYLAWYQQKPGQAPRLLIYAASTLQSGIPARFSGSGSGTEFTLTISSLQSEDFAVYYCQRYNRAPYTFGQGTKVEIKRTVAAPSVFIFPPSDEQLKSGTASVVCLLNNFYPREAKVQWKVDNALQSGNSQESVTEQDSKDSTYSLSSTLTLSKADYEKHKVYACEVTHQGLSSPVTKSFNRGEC
notes: the antibody part is that of TAVO167127 (EAC271/EAC272 are identical to EAC190/EAC191 but for the IGF2 mutations); not shown: remnant of the protease-cleavable linker left after cleavage
B13: TAVO192193 (antibody, human IgG1, kappa)
heavy: GIVEECCFRSCDLALLETYCAGGGGSIPVSLRSGGGGGSEVQLVESGGGLVQPGGSLRLSCAASGFDFADYAMHWVRQAPGKGLEWVSAITWNGGHTDYADSVKGRFTISRDNSKNTLYLQMNSLRAEDTAVYYCAKVSYLSTASSLDYWGQGTLVTVSSASTKGPSVFPLAPSSKSTSGGTAALGCLVKDYFPEPVTVSWNSGALTSGVHTFPAVLQSSGLYSLSSVVTVPSSSLGTQTYICNVNHKPSNTKVDKKVEPKSCDKTHTCPPCPAPPAAGPSVFLFPPKPKDTLMISRTPEVTCVVVDVSHEDPEVKFNWYVDGVEVHNAKTKPREEQYNSTYRVVSVLTVLHQDWLNGKEYKCKVSNKALPAPIEKTISKAKGQPREPQVYTLPPSRDELTKNQVSLTCLVKGFYPSDIAVEWESNGQPENNYKTTPPVLDSDGSFLLYSKLTVDKSRWQQGNVFSCSVLHEALHSHYTQKSLSLSPGK
light: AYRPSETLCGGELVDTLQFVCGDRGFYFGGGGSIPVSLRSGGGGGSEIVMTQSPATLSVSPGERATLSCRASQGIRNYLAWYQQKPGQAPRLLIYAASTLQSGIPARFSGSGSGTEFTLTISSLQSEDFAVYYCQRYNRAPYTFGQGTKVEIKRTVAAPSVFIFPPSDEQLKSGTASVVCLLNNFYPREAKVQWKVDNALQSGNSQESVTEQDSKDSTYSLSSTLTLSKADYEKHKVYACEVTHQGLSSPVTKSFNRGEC
notes: Undigested; also called anti-TNFα shielded antibody with IGF2-based masking domain; EAC192/EAC193
B14: TAVO198199 (antibody, human IgG1, kappa)
heavy: B13 heavy with I27L, P28S, V29G, S30R, L31S, R32D, S33N, G34H
light: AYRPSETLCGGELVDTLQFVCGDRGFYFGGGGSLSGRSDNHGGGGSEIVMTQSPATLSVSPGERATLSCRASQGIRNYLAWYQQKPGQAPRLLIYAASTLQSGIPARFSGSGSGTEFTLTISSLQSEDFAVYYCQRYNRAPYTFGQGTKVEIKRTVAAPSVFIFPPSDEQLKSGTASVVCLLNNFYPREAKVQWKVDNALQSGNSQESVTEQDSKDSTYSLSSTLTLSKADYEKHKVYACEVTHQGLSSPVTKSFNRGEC
notes: also called anti-TNFα shielded antibody with IGF2-based masking domain; EAC198/EAC199
B15: TAVO194195 (antibody, human IgG1, kappa)
heavy: B13 heavy with I27G, V29L, S30G, L31M, R32L, G34Q
light: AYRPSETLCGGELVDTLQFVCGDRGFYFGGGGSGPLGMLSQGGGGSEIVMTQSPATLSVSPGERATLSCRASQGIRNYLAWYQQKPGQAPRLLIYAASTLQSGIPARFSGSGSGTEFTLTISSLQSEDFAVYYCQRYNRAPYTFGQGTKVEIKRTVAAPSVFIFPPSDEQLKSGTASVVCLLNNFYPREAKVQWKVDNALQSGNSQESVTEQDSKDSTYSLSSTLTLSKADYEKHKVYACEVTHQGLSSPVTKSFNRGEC
notes: also called anti-TNFα shielded antibody with IGF2-based masking domain; EAC194/EAC195
B16: TAVO186187 (antibody, human IgG1, kappa)
heavy: GIVEECCFRSCDLALLETYCAGGGGSGPLGVRGGGGSEVQLVESGGGLVQPGGSLRLSCAASGFDFADYAMHWVRQAPGKGLEWVSAITWNGGHTDYADSVKGRFTISRDNSKNTLYLQMNSLRAEDTAVYYCAKVSYLSTASSLDYWGQGTLVTVSSASTKGPSVFPLAPSSKSTSGGTAALGCLVKDYFPEPVTVSWNSGALTSGVHTFPAVLQSSGLYSLSSVVTVPSSSLGTQTYICNVNHKPSNTKVDKKVEPKSCDKTHTCPPCPAPPAAGPSVFLFPPKPKDTLMISRTPEVTCVVVDVSHEDPEVKFNWYVDGVEVHNAKTKPREEQYNSTYRVVSVLTVLHQDWLNGKEYKCKVSNKALPAPIEKTISKAKGQPREPQVYTLPPSRDELTKNQVSLTCLVKGFYPSDIAVEWESNGQPENNYKTTPPVLDSDGSFLLYSKLTVDKSRWQQGNVFSCSVLHEALHSHYTQKSLSLSPGK
light: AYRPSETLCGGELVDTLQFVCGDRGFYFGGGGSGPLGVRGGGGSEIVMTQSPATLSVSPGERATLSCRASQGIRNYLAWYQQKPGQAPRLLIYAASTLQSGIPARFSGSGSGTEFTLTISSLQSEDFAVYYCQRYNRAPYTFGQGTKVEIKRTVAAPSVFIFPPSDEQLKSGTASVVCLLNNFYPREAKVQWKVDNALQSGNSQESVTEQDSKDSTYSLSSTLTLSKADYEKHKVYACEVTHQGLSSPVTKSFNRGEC
notes: Undigested; IGF2 A chain - MMP2/9 linker (GPLGVR) - heavy chain (ADA-H2X, IgG1 Fc mutant); IGF2 B chain - linker - light chain (ADA-L1); also called anti-TNFα shielded antibody with IGF2-based masking domain; EAC186/EAC187
B17: TAVO190191 (antibody, human IgG1, kappa)
heavy: B16 heavy with G27P, P28L, L29G, G30L, V31A, R32G
light: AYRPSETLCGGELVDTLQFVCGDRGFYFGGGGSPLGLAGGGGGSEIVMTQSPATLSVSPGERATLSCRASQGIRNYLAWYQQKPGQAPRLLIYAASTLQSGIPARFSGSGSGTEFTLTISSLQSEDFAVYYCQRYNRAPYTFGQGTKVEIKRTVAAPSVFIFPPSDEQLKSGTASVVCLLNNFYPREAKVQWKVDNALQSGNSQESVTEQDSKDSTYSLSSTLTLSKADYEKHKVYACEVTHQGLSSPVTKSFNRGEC
notes: Undigested; Native IGF2 A and B chains, MMP2/9 substrate PLGLAG; also called anti-TNFα shielded antibody with IGF2-based masking domain; EAC190/EAC191
B18: TAVO188189 (antibody, human IgG1, kappa)
heavy: B16 heavy with G27P, P28L, L29G, G30L, V31A
light: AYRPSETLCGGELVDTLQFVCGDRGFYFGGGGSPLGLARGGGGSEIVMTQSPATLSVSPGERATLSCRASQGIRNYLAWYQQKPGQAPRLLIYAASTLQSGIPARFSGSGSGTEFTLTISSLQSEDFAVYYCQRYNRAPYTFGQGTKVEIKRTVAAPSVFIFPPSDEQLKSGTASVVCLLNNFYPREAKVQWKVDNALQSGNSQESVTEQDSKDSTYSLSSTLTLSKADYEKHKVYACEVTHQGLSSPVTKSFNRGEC
notes: Undigested; MMP2/9 substrate PLGLAR; also called anti-TNFα shielded antibody with IGF2-based masking domain; EAC188/EAC189
B19: TAVO196197 (antibody, human IgG1, kappa)
heavy: GIVEECCFRSCDLALLETYCAGGGGSRPKPVEVWRKGGGGSEVQLVESGGGLVQPGGSLRLSCAASGFDFADYAMHWVRQAPGKGLEWVSAITWNGGHTDYADSVKGRFTISRDNSKNTLYLQMNSLRAEDTAVYYCAKVSYLSTASSLDYWGQGTLVTVSSASTKGPSVFPLAPSSKSTSGGTAALGCLVKDYFPEPVTVSWNSGALTSGVHTFPAVLQSSGLYSLSSVVTVPSSSLGTQTYICNVNHKPSNTKVDKKVEPKSCDKTHTCPPCPAPPAAGPSVFLFPPKPKDTLMISRTPEVTCVVVDVSHEDPEVKFNWYVDGVEVHNAKTKPREEQYNSTYRVVSVLTVLHQDWLNGKEYKCKVSNKALPAPIEKTISKAKGQPREPQVYTLPPSRDELTKNQVSLTCLVKGFYPSDIAVEWESNGQPENNYKTTPPVLDSDGSFLLYSKLTVDKSRWQQGNVFSCSVLHEALHSHYTQKSLSLSPGK
light: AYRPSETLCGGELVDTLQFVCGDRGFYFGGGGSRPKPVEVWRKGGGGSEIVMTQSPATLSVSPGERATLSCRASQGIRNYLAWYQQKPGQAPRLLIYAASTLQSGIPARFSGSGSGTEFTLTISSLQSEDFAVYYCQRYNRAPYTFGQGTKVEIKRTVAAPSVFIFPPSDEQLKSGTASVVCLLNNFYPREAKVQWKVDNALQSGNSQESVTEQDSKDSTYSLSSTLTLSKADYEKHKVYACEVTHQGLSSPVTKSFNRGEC
notes: Undigested; also called anti-TNFα shielded antibody with IGF2-based masking domain; EAC196/EAC197
B20: TAVO167127 (antibody, human IgG1, kappa)
heavy: B5 heavy
light: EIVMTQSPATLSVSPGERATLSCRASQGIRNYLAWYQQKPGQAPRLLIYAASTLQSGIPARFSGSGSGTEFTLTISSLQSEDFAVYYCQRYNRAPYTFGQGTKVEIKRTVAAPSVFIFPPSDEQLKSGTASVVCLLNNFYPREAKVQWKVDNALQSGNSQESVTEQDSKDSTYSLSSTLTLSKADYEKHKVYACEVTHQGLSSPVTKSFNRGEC
notes: Control antibody, ADA-H2X / ADA-L1 variable domains, IgG1 Fc with E233P, L234A, L235A, F405L, M428L, N434S and G236 deleted; also called active anti-TNFα antibody without the IGF2-based masking domain; unmasked anti-TNFα antibody

Numbering of substitutions follows the chain as printed. In names and notes the source's numbering stands. A value given as a limit tells only on which side of the number the result lay.

In the first experiment the target is T1, recombinant human TNFα (human, UniProt P01375 77-233).
T1 construct: Bought protein
T1 sequence (P01375 77-233 limits assumed): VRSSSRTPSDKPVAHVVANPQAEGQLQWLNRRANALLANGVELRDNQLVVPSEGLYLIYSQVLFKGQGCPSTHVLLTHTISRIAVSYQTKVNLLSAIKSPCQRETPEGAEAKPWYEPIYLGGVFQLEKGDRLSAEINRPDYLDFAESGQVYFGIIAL
As to the kind of experiment: ELISA on human TNFα. A general note: An ELISA detects its analyte on a solid surface through an enzyme-linked reagent.
In the case of B1, the binding result is reported as “binds”. Consider B2, for which the binding result is “binds”. Consider B3, for which the binding result is recorded as “binds”. With B4, the binding result is listed as “binds”.

A further experiment addresses T1, recombinant human TNFα. As to the kind of experiment: ELISA, recombinant human TNFα coated at 1 µg/mL, after protease cleavage. As to the method: (§1) In this assay, 1 μg/mL recombinant human TNFα (R&D systems) was coated on an ELISA plate. Increasing concentrations of anti-TNFα shielded antibodies were applied on the plate and their binding to the recombinant human TNFα was detected by HRP-conjugated anti-human secondary antibody.
As for B5, the binding result is “binds”. Still for that read-out and setting: in the case of B6 it was “binds”; in that of B7, “binds”.

On to B8, for which the binding result is “binds”. The same measure, in the same setting: with B9 the entry was “binds”. Still for that read-out and setting: with B10 the entry was “binds”; with B11, “binds”.

For a further experiment, the target named is T1, recombinant human TNFα. As to the kind of experiment: ELISA on human TNFα, after MMP2 cleavage. As to the method: as §1
For B12, the binding result is “binds”.

Another experiment concerns the target T1, recombinant human TNFα. As to the kind of experiment: cell-based or functional assay.
In the case of B13, the “HEK-Blue TNFα reporter assay: potency in blocking TNFα functional activity, fold lower than TAVO167127” value is ~50 fold. Take B14: the “HEK-Blue TNFα reporter assay: potency in blocking TNFα functional activity, fold lower than TAVO167127” value was ~50 fold. For the molecule B15, the “HEK-Blue TNFα reporter assay: potency in blocking TNFα functional activity, fold lower than TAVO167127” value was ~50 fold. On the same count and under the same terms, with B16 the figure was ~50 fold. On to B17, for which the “HEK-Blue TNFα reporter assay: potency in blocking TNFα functional activity, fold lower than TAVO167127” value was ~50 fold.

On to B18, for which the “HEK-Blue TNFα reporter assay: potency in blocking TNFα functional activity, fold lower than TAVO167127” value is ~50 fold.

With B19, the “HEK-Blue TNFα reporter assay: potency in blocking TNFα functional activity, fold lower than TAVO167127” value was ~50 fold.

Another experiment addresses T1, recombinant human TNFα. As to the kind of experiment: ELISA, recombinant human TNFα coated at 1 µg/mL, HRP anti-human secondary. The protocol: as §1
In the case of B13, the “fold lower binding affinity than TAVO167127” value was ≥ 5 fold. In the case of B14, the “fold lower binding affinity than TAVO167127” value was ≥ 5 fold. On the same count and under the same terms, with B15 the figure was ≥ 5 fold; with B16, ≥ 5 fold. Take B17: the “fold lower binding affinity than TAVO167127” value is ≥ 5 fold.

B18: the “fold lower binding affinity than TAVO167127” value was ≥ 5 fold.

In the case of B20, the binding result is listed as “binds”. With B19, the “fold lower binding affinity than TAVO167127” value is ≥ 5 fold.
